This is an account of results in patent US8168595B2, “Antithrombotic dual inhibitors comprising a biotin residue” (priority 2004, dated 2012).

The structures appear in SMILES notation. Counter-ions that a name gives are not always drawn. Like-named read-outs stand apart in the source and are kept apart here.

One data set deals with factor IIa (Homo sapiens, UniProt P00734). Nature of the data set: In vitro amidolytic anti-factor IIa activity in human plasma (S2238). As to conditions: human plasma pH 7.4, substrate S2238; read-out: Anti-IIa Human plasma pH 7.4 IC-50. In kind it is biochemical. Here is the method: (§1) In Vitro Test for Determination of the Anti-Factor Xa and Factor IIa Activity in Human Plasma The anti-factor Xa and IIa activity of the tested compounds in human plasma were measured amidolytically using S2222 or S2238 (Chromogenix, Chromogenics Ltd, Molndal, Sweden) as substrates, respectively. The protcols were based on the method described by Teien and Lie. (Teien A N, Lie M. Evaluation of an amidolytic heparin assay method increased sensitivity by adding purified antithrombin III. Thromb. Res. 1977, 10: 399-410). Both activities are expressed in IC-50 (Mol/L).

A short description of data set [1]: Pharmacokinetics after s.c. administration in rats. In kind it is in vivo, male Wistar rats. Conditions: rat, 100 nmol/kg s.c.; for AUC(0-inf) / MRT / Tmax / half-life / Cmax: male, Wistar, sc; for AUC(0-inf) / MRT / Tmax / half-life: plasma, 100 nmol/kg; for AUC(0-inf) / MRT / Tmax / half-life / Cmax / Cl / Vz: mean ± s.e.m.; for AUC(0-inf) / MRT / Tmax / Cmax / Cl / Vz: n = 3; for half-life: n = 3, read-out: T½ eli (converted); for pharmacokinetic behavior in rats, compound III compared with Org 42675: within the variability of the experiment. Here is the method:
3.1 Pharmacokinetics The pharmacokinetic properties of Org 42675 and of compound III of this invention were studied in male Wistar rats of 300-400 gr. The rats were anaesthetized by inhalation of a mixture of O2/N2O/isoflurane, after which the right jugular vein was cannulated. The next day rats were treated s.c. with doses of 100 nmol/kg. After s.c. administration, blood was sampled at several time intervals. Then the blood was centrifuged after which the plasma was siphoned off and stored at −20° C. until use. The concentration of the tested compound was measured amidolytically using S-2222 or S-2238 as substrates (Chromogenix, Chromogenics Ltd, Molndal, Sweden) to determine the anti-Xa or anti-IIa activity, respectively. Both procedures were based on the methods of Teien and Lie (Teien A N, Lie M. Evaluation of an amidolytic heparin assay method increased sensitivity by adding purified antithrombin III. Thromb. Res. 1977, 10: 399-410). The concentrations in the obtained plasma samples were determined against a calibration curve which was made of the stock solution of the tested compound itself. The concentration in the samples was expressed in nmol/mL and the kinetic parameters were calculated with the noncompartment model of WinNonlin. (see FIG. 1)

The nature of data set [2]: Pharmacokinetics - neutralization experiment with avidin in rats. As to conditions: rat, 100 nmol/kg s.c. It counts as in vivo. Here is the method:
3.2 Pharmacokinetics—Neutralization Experiment:
Rats were treated with compound III of this invention, or Org 42675 at a dose of 100 nmol/kg s.c. At t=2 h, a blood sample was taken and 10 mg/kg of Avidin (from egg white, Sigma) was administered i.v. to the rats treated with compound III of this invention or Org 42675. Blood was sampled at 0.17, 0.5, 1, 2, 3, and 7 hours subsequently. The blood was treated as described in the pharmacokinetic experiment and the concentration of the samples was determined by measuring the (residual) anti-Xa or anti-IIa activity. (see FIG. 2)

A further data set has as its system factor Xa. Nature of the data set: In vitro amidolytic anti-factor Xa activity in human plasma (S2222). In kind it is biochemical. As to conditions: human plasma pH 7.4, substrate S2222; read-out: Anti-Xa Human plasma pH 7.4 IC-50. The procedure:
as §1

For data set [3] the following is noted: in vivo; cited from earlier work.
The conditions of data set [4]: experimental thrombosis; cited from earlier work.
The mark [5] stands for this setting: plasma level by anti-IIa activity.
[6] abbreviates: plasma level by anti_Xa activity.

Regarding `COc1cc(C)c(S(=O)(=O)N[C@@H](CC(=O)NCCCC(=O)N[C@@H](CCCCNC(=O)CCCC[C@@H]2SC[C@@H]3NC(=O)N[C@@H]32)C(=O)NCCOCCOCCOCCO[C@H]2[C@H](OC)[C@@H](OC)[C@@H](O[C@H]3[C@H](OC)[C@@H](OC)[C@H](O[C@H]4[C@H](OS(=O)(=O)O)[C@@H](OS(=O)(=O)O)[C@@H](O[C@H]5[C@H](OC)[C@@H](OC)[C@H](O[C@H]6[C@H](OC)[C@@H](OS(=O)(=O)O)[C@@H](OC)O[C@@H]6COS(=O)(=O)O)O[C@H]5C(=O)O)O[C@@H]4COS(=O)(=O)O)O[C@@H]3C(=O)O)O[C@@H]2COS(=O)(=O)O)C(=O)N[C@H](Cc2ccc(C(=N)N)cc2)C(=O)N2CCCCC2)c(C)c1C` [Compound III, sodium salt], at factor IIa, the IC50 was determined as 16.2 nM. Further, in data set [1] (setting [5]), the AUC(0-inf) was 5 ± 0.6 µM·h, the mean residence time (MRT) was found to be 4.3 ± 0.3 h, the Tmax was 1.5 ± 0.5 h and the half-life is 2.7 ± 0.5 h. In data set [1] (setting [5]), this molecule registered a Cl of 0.343 ± 0.04 mL/min/kg and a Vz of 0.078 ± 0.0042 L/kg. For the same molecule, in data set [1] (setting [6]), the AUC(0-inf) is 7.2 ± 0.2 µM·h, the MRT was 5.9 ± 0.5 h, the Tmax was 1.2 ± 0.4 h and the half-life is 3.9 ± 0.3 h. In addition, in data set [1] (setting [6]), the Cmax came to 1100 ± 100 nM, the Cl was determined as 0.232 ± 0.0067 mL/min/kg and the Vz worked out at 0.078 ± 0.0046 L/kg. Moreover, the “pharmacokinetic behavior in rats, compound III compared with Org 42675” value in data set [1] was “the same pharmacokinetic behavior”. In addition, the “neutralization of antithrombotic activity ((residual) anti-Xa and anti-IIa activity) by avidin” value in data set [2] (avidin 10 mg/kg i.v.) is “can be neutralized”. The IC50 with factor Xa is 0.843 nM.
For `COc1cc(C)c(S(=O)(=O)N[C@@H](CC(=O)NCCCC(=O)NCCOCCOCCOCCO[C@H]2[C@H](OC)[C@@H](OC)[C@@H](O[C@H]3[C@H](OC)[C@@H](OC)[C@H](O[C@H]4[C@H](OS(=O)(=O)O)[C@@H](OS(=O)(=O)O)[C@@H](O[C@H]5[C@H](OC)[C@@H](OC)[C@H](O[C@H]6[C@H](OC)[C@@H](OS(=O)(=O)O)[C@@H](OC)O[C@@H]6COS(=O)(=O)O)O[C@H]5C(=O)O)O[C@@H]4COS(=O)(=O)O)O[C@@H]3C(=O)O)O[C@@H]2COS(=O)(=O)O)C(=O)N[C@H](Cc2ccc(C(=N)N)cc2)C(=O)N2CCCCC2)c(C)c1C` [Org 42675, reference compound], the “prolonged half-life in comparison to the corresponding non-conjugated direct thrombin inhibitor derived from NAPAP” value in data set [3] is 10 fold. In addition, the “efficacy in comparison with argatroban, heparin and fondaparinux” value in data set [4] is reported as “improved efficacy”. The IC50 on factor IIa stood at 17.8 nM. Moreover, in data set [1] (setting [6]), the AUC(0-inf) was found to be 5.3 ± 0.3 µM·h, the MRT worked out at 4.6 ± 0.2 h, the Tmax was determined as 2.3 ± 0.2 h and the half-life is 2.7 ± 0.2 h. In data set [1] (setting [6]), this molecule registered a Cmax of 1000 ± 20 nM, a Cl of 0.318 ± 0.0183 mL/min/kg and a Vz of 0.074 ± 0.0045 L/kg. In addition, the “pharmacokinetic behavior in rats, compound III compared with Org 42675” value in data set [1] is listed as “the same pharmacokinetic behavior”. Further, in data set [2] (Wistar, plasma, subcutaneous, avidin 10 mg/kg i.v. at t = 2 h, calculated from T = 2 h, anti_Xa activity, mean ± s.e.m., n = 3), the AUC(0-inf) is 4.8 ± 0.6 µM·h. Also, the “pharmacokinetic behavior on addition of avidin” value in data set [2] (avidin 10 mg/kg i.v. at t = 2 h) is on record as “not affected”. The IC50 with factor Xa stood at 0.767 nM.

A word on the AUC(0-inf): it is the area under the concentration-time curve extrapolated to infinity. The MRT is a mean duration of stay, worked out from the concentration-time curve. The Tmax is the time at which the peak concentration occurs. What is called Cmax is the maximum level reached in the sampled fluid or tissue.
